Source: patent US20240342207, “MODIFIED NUCLEIC ACID COMPOSITIONS AND ASSOCIATED METHODS FOR TREATMENT OF PHENYLKETONURIA” (BOARD OF REGENTS, THE UNIVERSITY OF TEXAS SYSTEM, published 2024)
Positions count from the first letter of the chain named.

What was measured:
Assay in all cases: EMSA; one of 13 of 17 binding mutants; affinity not decreased
Settings in all cases: tags: His-tag, E. coli; stem-loop
PAH I318T = molecular target: T1, PAH I318T (Homo sapiens, UniProt P00439 P00439:1-452, I318T)
T1 sequence: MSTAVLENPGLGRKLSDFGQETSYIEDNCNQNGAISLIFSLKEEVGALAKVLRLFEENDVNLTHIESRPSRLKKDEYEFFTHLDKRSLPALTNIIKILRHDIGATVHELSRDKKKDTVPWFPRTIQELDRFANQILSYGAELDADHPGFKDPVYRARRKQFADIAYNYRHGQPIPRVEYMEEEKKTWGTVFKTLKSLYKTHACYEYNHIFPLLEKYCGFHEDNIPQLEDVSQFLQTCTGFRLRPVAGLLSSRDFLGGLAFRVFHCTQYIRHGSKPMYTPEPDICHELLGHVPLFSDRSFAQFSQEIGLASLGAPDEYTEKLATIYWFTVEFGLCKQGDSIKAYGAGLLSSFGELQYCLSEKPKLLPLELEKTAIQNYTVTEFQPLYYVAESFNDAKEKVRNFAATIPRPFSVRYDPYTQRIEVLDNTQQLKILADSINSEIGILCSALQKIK

PAH F299C = molecular target: T2, PAH F299C (Homo sapiens, UniProt P00439 P00439:1-452, F299C)
T2 sequence: T1 sequence with F299C, T318I

PAH R408W = molecular target: T3, PAH R408W (Homo sapiens, UniProt P00439 P00439:1-452, R408W)
T3 sequence: T1 sequence with T318I, R408W

PAH F55L = molecular target: T4, PAH F55L (Homo sapiens, UniProt P00439 P00439:1-452, F55L)
T4 sequence: T1 sequence with F55L, T318I

PAH P275L = molecular target: T5, PAH P275L (Homo sapiens, UniProt P00439 P00439:1-452, P275L)
T5 sequence: T1 sequence with P275L, T318I

Measured: binding result

CAAAAUGCAUAUGUAUCUUUG (ssRNA) [HULC 181-201 mimic]
binds: PAH I318T | PAH F299C | PAH R408W | PAH F55L | PAH P275L
